According to patent US20110319287A1, “MODULATOR ASSAY” (ADDEX PHARMA S.A., priority 2009, published 2011):
Each block holds one substance with its values, some of them ahead of it.

Legend:
Experiment in all cases: cell-based or functional assay
[1] = molecular target: Recombinant Human TL1A/TNFSF15 (R&D Systems, Cat N° 1319-TL) (human) (UniProt O95150)
[2] = molecular target: DR3 receptor expressed in HeLa TRADD DR3 cells (Homo sapiens (Human)) (UniProt Q93038)
[3] = molecular target: recombinant human TNF-α (Peprotech, Cat N° 300-01A) (human) (UniProt P01375)
Sequence of recombinant human TNF-α (Peprotech, Cat N° 300-01A) (human) (P01375 77-233 limits assumed): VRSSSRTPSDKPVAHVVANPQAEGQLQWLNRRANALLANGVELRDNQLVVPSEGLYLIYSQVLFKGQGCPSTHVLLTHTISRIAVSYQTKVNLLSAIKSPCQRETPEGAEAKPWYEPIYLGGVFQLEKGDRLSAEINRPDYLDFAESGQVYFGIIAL

Sequence of Recombinant Human TL1A/TNFSF15 (R&D Systems, Cat N° 1319-TL) (human) (O95150 72-251 limits assumed): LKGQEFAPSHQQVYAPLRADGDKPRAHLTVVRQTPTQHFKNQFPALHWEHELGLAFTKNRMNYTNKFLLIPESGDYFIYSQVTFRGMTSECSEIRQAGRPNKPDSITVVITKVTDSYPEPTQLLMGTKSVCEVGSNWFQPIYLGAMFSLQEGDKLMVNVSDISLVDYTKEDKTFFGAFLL
Sequence of DR3 receptor expressed in HeLa TRADD DR3 cells (Homo sapiens (Human)) (Q93038 other isoform, or with tags, fused parts or gaps, form in doubt): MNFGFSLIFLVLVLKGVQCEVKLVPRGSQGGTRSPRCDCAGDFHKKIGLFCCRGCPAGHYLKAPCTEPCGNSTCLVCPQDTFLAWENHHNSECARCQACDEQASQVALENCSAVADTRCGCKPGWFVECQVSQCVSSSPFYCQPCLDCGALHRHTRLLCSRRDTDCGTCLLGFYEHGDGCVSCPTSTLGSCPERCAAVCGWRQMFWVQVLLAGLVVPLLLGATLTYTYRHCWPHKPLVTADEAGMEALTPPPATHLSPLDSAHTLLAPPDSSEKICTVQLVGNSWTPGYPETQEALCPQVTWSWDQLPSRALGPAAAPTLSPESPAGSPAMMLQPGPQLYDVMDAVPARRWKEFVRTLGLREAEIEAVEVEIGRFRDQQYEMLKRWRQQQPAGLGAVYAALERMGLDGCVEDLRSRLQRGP

IC50 of inhibition of TL1A-induced TRADD-EYFP relocalisation in HeLa TRADD DR3 cells (300 ng/ml TL1A, FIG. 17) [1]: 1.41 µg/mL
Substance: Recombinant Human DcR3/TNFRSF6B/Fc Chimera, CF (R&D Systems, Cat N° 142-DC) (from UniProt O95407 30-300) (Fc fusion)

EC50 of TL1A-induced relocalisation of TRADD-EYFP in HeLa TRADD DR3 cells (FIG. 17) [2]: 4.3 ng/mL
Substance: Recombinant Human TL1A/TNFSF15 (R&D Systems, Cat N° 1319-TL) (from UniProt O95150 72-251) (ligand)

IC50 of inhibition of TNF-induced TRADD-EYFP relocalisation in HeLa TRADD DR3 cells (100 ng/ml TNF, FIG. 19) [3]: 53.8 ng/mL | IC50 of inhibition of TNF-induced relocalisation of TRADD-EYFP (TNF dose 300 ng/ml, FIG. 9) [3]: 2.74 µM
Substance: etanercept (Enbrel®, from Amgen, Inc.) (Fc fusion)
